Two molecules from patent US20240150457A1 can be followed below.

The target of test [1] is Cynomolgus monkey PAR-2 on cells (cynomolgus monkey). Put plainly: cell-based or functional assay.
Test [2] deals with Recombinant cynomolgus monkey PAR-2 (cynomolgus monkey). Put plainly: SPR (Biacore), antibody captured on Protein A chip, recombinant PAR-2 injected. (In general: SPR reads the build-up and loss of mass on a sensor chip optically.)
In test [3] the target is Cynomolgus monkey PAR-2 on cells (cynomolgus monkey). The test can be described thus: cell-based or functional assay. This is another data set of the same source.

B1: P24E1102 (antibody, human IgG4 S228P, kappa, V domains shown)
VH: QVQLVQSGAEVKKPGSSVKVSCKASGFSLSSYAISWVRQAPGQGLEWMGVIWGNQNVYYAQKFQGRVTITADESTSTAYMELSSLRSEDTAVYYCARWKGYKDYPFDYWGQGTLVTVSS
VL: EIVLTQSPATLSLSPGERATLSCRASQNVYKWLDWYQQKPGQAPRLLIYNANTRATGIPARFSGSGSGRDFTLTISSLEPEDFAVYYCQQHHSGWTFGGGTKVEIKR
As for B1, in test [1], the IC50 mean, calcium flux at SLIGKV EC80 (Nomad line) was determined as 0.00398 µM and the IC50 mean, β-arrestin at SLIGKV EC80 (Nomad line) stood at 0.0152 µM. Further, the Kd (commonly the concentration at which binding is half-saturated) in test [2] was determined as 0.00445 µM.

In the case of SLIGKV, in test [3], the SLIGKV EC80 mean, calcium flux came to 39 µM and the SLIGKV EC80 mean, β-arrestin was determined as 107 µM.
